Experimental data: article PMC8528806, “Enzyme promiscuity in natural environments: alkaline phosphatase in the ocean” (The ISME Journal, 2021)

How the values were obtained:
[1] = molecular target: T1, PhoA (APase; MADE1013045) (Alteromonas mediterranea, UniProt F2G8N3); assay: p-nitrophenol release, absorbance […] nm, Michaelis-Menten fit; format: biochemical; settings: read-out: KM (μmol l^-1); 100 mM Tris pH 8.2, 24 °C, 100 µM MgCl2; 10 nM enzyme
T1 construct: gene MADE_1013045; full-length 1467-bp synthetic gene, pETM-14, N-terminal His6-PreScission 3C, tag cleaved, expressed in E. coli BL21(DE3)
T1 sequence (F2G8N3 1-488): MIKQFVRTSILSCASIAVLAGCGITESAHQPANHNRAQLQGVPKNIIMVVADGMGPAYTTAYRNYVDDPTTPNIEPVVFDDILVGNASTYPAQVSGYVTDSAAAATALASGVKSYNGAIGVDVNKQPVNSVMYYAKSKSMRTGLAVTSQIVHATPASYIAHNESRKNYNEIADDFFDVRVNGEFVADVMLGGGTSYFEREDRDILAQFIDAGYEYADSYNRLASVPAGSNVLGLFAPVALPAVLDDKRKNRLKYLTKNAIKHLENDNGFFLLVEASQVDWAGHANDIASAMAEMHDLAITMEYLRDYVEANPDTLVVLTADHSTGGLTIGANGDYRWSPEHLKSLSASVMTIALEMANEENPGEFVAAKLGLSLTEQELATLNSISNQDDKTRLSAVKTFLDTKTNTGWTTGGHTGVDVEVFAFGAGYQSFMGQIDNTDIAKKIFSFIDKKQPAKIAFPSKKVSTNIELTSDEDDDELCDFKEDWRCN

purified protein [2] = substrate: O=[N+]([O-])c1ccc(OP(=O)(O)O)cc1; assay: purified protein; format: biochemical, Alteromonas mediterranea; settings: 100 mM Tris pH 8.2, 24 °C, 100 µM MgCl2, 1 nM enzyme, text rounds KM to 90 µM
purified protein [3] = substrate: O=[N+]([O-])c1ccc(OP(=O)(O)Oc2ccc([N+](=O)[O-])cc2)cc1; assay: purified protein; format: biochemical, Alteromonas mediterranea; settings: 100 mM Tris pH 8.2, 24 °C, 100 µM MgCl2, 10 nM enzyme

## COP(=O)(OC)Oc1ccc([N+](=O)[O-])cc1 [Paraoxon-methyl]
[1]
  Km: 0.015 µM

B1: PhoA (APase; MADE1013045) (Alteromonas mediterranea DE) (protein)
chain: T1 sequence (F2G8N3 1-488)
notes: full-length 1467-bp synthetic gene, pETM-14, N-terminal His6-PreScission 3C, tag cleaved, expressed in E. coli BL21(DE3)
Purified protein [2]
  Km: 94 ± 35 µM
  kcat: 0.5 ± 0.03 s⁻¹
  kcat/Km: 4800 ± 800 M⁻¹ s⁻¹
Purified protein [3]
  Km: 0.3 ± 0.1 µM
  kcat: 0.017 ± 0.001 s⁻¹
  kcat/Km: 55000 ± 8000 M⁻¹ s⁻¹
